According to patent publication US20210079037A1, “LIGHT-SWITCHABLE POLYPEPTIDE AND USES THEREOF” (TECHNISCHE UNIVERSITÄT MÜNCHEN, priority 2017, published 2021):
Numbered stars: 1 amine (or outer) side, 2 acyl side, 3 side chain; on linkers, the order of the positions; unused ones are H or OH. Square brackets hold non-standard residues; d marks the D form. Caf = 4′-carboxyphenylazophenylalanine, O=C([C@H](Cc1ccc(/N=N/c2ccc(C(=O)[*:3])cc2)cc1)N[*:1])[*:2]

System: mouse anti-6×His antibody alkaline phosphatase (AP) conjugate
Test: ELISA for light-induced reversible binding of an immunoglobulin to ProtL^Caf-ABD fusion proteins
Conditions: for change in enzyme activity of bound Ig-AP conjugate after irradiation with UV light: UV light at 365 nm, 5 min; for affinity for the IgG (ELISA signal): ground state / illuminated with visible light
Protocol: ELISA was performed at ambient temperature in a 96-well Maxisorb microtiter plate (Nunc, Langenselbold, Germany).
Then, the wells were blocked with […] Roti-Block (Carl Roth, Karlsruhe, Germany) diluted 1:10 in ddH2O for 1 h and washed three times with PBS containing 0.1% v/v Tween 20 (PBS/T). After that, the purified ProtL^Caf-ABD fusion protein from Example 11 was applied in a dilution series in PBS/T and incubated for 1 h to effect complex formation between the ABD moiety and the pre-adsorbed HSA. The wells were then washed three times with PBS/T and incubated with 50 μl of a 1:1000 dilution in PBS/T of the aforementioned mouse anti-6×His Ig-AP conjugate.
All subsequent washing steps were performed in the dark. […] After 5 min at 25° C., the absorbance at 405 nm was measured using a SpectraMax 250 microtiter plate reader (Molecular Devices, Sunnyvale, Calif., USA).

Molecule	change in enzyme activity of bound Ig-AP conjugate after irradiation with UV light	other results
ProtL^Caf364: ProtL-ABD fusion protein modified with Caf at position 364 (protein) MKEEVTIKVNLIFADGKTQTAEFKGTFEEATAKAYAYAD[Caf]LAKENGEYTADLEDGGNTINIKFAGGAVDANSLAEAKVLANRELDKYGVSDYYKNLINNAKTVEGVKALIDEILAALP	much less signal decrease	
ProtL^Caf347: ProtL-ABD fusion protein with Caf at position 347 and mutation Tyr361Ala (protein) MKEEVTIKVNLIFADGKTQTAE[Caf]KGTFEEATAKAYAAADLLAKENGEYTADLEDGGNTINIKFAGGAVDANSLAEAKVLANRELDKYGVSDYYKNLINNAKTVEGVKALIDEILAALP	much less signal decrease	
ProtL^Caf337: ProtL-ABD fusion protein with Caf at position 337 and mutations Tyr361Asn and Leu365Ser (SEQ ID NO: 86) (protein) MKEEVTIKVNLI[Caf]ADGKTQTAEFKGTFEEATAKAYANADLSAKENGEYTADLEDGGNTINIKFAGGAVDANSLAEAKVLANRELDKYGVSDYYKNLINNAKTVEGVKALIDEILAALP	clear decrease	dissociation constant for the complex with the anti-6×His antibody (after irradiation with UV light at 365 nm): too low to deduce a dissociation constant; Kd (ground state (no UV), curve fit of the ELISA data, read-out: dissociation constant for the complex with the anti-6×His antibody): ~140 nM; affinity for the IgG (ELISA signal): showed affinity for the IgG; affinity for the IgG (ELISA signal) (listed as Caf337): high affinity
ProtL-ABD: unmodified protein L domain B1 fused to a human albumin-binding domain (SEQ ID NO: 61) (protein, ProtL-ABD fusion protein) MKEEVTIKVNLIFADGKTQTAEFKGTFEEATAKAYAYADLLAKENGEYTADLEDGGNTINIKFAGGAVDANSLAEAKVLANRELDKYGVSDYYKNLINNAKTVEGVKALIDEILAALP	did not reveal any change in binding activity	
ProtL^Caf369: ProtL-ABD fusion protein modified with Caf at position 369 (protein) MKEEVTIKVNLIFADGKTQTAEFKGTFEEATAKAYAYADLLAKE[Caf]GEYTADLEDGGNTINIKFAGGAVDANSLAEAKVLANRELDKYGVSDYYKNLINNAKTVEGVKALIDEILAALP	much less signal decrease	
ProtL^Caf360: ProtL-ABD fusion protein modified with Caf at position 360 (protein) MKEEVTIKVNLIFADGKTQTAEFKGTFEEATAKAY[Caf]YADLLAKENGEYTADLEDGGNTINIKFAGGAVDANSLAEAKVLANRELDKYGVSDYYKNLINNAKTVEGVKALIDEILAALP	much less signal decrease	
ProtL^Caf368: ProtL-ABD fusion protein modified with Caf at position 368 (protein) MKEEVTIKVNLIFADGKTQTAEFKGTFEEATAKAYAYADLLAK[Caf]NGEYTADLEDGGNTINIKFAGGAVDANSLAEAKVLANRELDKYGVSDYYKNLINNAKTVEGVKALIDEILAALP	much less signal decrease	
